Experimental data published in patent publication EP4644419A1 (Hangzhou Zhongmeihuadong Pharmaceutical Co., Ltd., dated 2025).
Substitutions are numbered along the chain they refer to. Where “and” joins values, the source holds several entries; their conditions need not be identical. Equal values may be shown once.

T1: human CD112R on GS-J2C/CD112R effector cells (human, UniProt Q6DKI7 1-326)
T1 sequence (looked up): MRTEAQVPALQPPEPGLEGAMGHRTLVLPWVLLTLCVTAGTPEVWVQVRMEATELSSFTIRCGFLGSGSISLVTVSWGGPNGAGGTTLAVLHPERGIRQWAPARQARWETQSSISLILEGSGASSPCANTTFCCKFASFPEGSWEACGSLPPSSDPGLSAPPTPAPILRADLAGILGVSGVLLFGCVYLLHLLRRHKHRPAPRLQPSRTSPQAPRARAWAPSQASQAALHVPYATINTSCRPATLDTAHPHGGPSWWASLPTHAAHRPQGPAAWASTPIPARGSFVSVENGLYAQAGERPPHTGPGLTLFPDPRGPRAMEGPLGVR

T2: human CD112R antigen protein huCD112R-His (Acro Biosysterm, PVG-H52H4) (human, UniProt Q6DKI7 41-171)
T2 construct: purchased; also called human antigen protein; not shown: His tag
T2 sequence (looked up): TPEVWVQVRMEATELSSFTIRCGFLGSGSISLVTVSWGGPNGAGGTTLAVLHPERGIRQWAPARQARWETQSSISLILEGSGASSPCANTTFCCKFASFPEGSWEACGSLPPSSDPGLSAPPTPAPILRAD

T3: monkey antigen protein (monkey CD112R, Uniprot ID: A0A2K5WVV8) (monkey, UniProt A0A2K5WVV8 41-171)
T3 sequence: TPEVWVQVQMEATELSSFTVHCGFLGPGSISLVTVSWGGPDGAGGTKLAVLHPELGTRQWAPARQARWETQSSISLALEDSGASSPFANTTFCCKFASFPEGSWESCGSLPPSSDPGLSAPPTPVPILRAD

T4: human CD112R on antigen-specific CD8+ T cells (human, UniProt Q6DKI7 1-326)
T4 sequence (looked up): T1 sequence (looked up)

B1: C67 (antibody, human IgG1, kappa, V domains shown)
VH: EAQLQQSGPELVKPGASVKISCKASGYTFTDYYMNWVKQSHGKSLDWIGDINPDNGGSTYNQKFKGKATLTVDKSSSTAYMELRSLTSEDSAVYYCSASGPPYVLLDYWGQGTSVIVSS
VL: DIQMTQSPASLSASVGETVTITCQTSENIYSYLAWYQQKQGKSPQLLVYNTQTLAEGVPSRFSGSRSGAQFSLKINSLQPEDFGSYYCQHHYGVPLTFGAGTKLELKR
B2: C55 (antibody, human IgG1, kappa, V domains shown)
VH: EVQLQQSGPELVKPGASVKISCKASGYTFTDYYMSWVKQSHGKSLEWIGDVNPNNGDTSYNQKFKGKATLTVDKSSSTAYMELRSLTSEDSAVYYCAASGLPYVLMDYWGQGTSVTVSS
VL: B1 VL with Q24R, T25A, Y30N, Q52K, A55T, G57D, R66G, A69T, V94T, A100G
B3: C114 (antibody, human IgG1, kappa, V domains shown)
VH: QVQLQQSGAELVRPGTSVKMSCKAAGYTFTNSWINWVKQRPGHGLEWIGDIYPGNTFPNYNEKFKGKATLTADTSSSTAYMQLSSLTSEDSAVYYCTGGYFDVWGTGTTVTVSS
VL: DIVMTQSPSSLSVSAGEKVTMSCKSSQSLLNSGNQKNFLAWYQQKPGQPPKLLIFGASTRQSGVPDRFTGSGSGTDFTLTISSVQAEDLAVYYCQNDHSYPYTFGGGTKLEMKR
B4: C129 (antibody, human IgG1, kappa, V domains shown)
VH: QVQLQQSGAELMTPGSSVKLSCKATGYTFTDYWIEWVKKRPGHGLEWIGEILPGYISTNYNEKFKDKATFTADTSSNTTYMQLSSLTSEDSAVYYCVLIVTTYYYFMDYWGQGTSVTVSS
VL: QIVLTQSPAIMSASPGEKVTITCSASSSVTYMHWFQQKPGTSPKLWIYSTSNLASGVPVRFSGSGSGTSYSLTISRMEAEDAATYYCQQRSSYPWTFGGGTKLEIKR
B5: anti-CD112R antibody CHA.7.518 (antibody, V domains shown)
VH: QVQLVQSGAEVKKPGASVKVSCKASGYTFTDYNINWVRQAPGQGLEWMGYIYPYIGGSGYAQKFQGRVTMTRDTSTSTVYMELSSLRSEDTAVYYCAREDKTARNAMDYWGQGTLVTVSS
VL: DIQMTQSPSSLSASVGDRVTITCRVSENIYSNLAWYQQKPGKAPKLLIYEATNLAEGVPSRFSGSGSGTDFTLTISSLQPEDFATYYCQHFWGTPYTFGQGTKLEIKR
notes: synthesised according to WO/2016/134333; also called Tab-1; Tab 1
B6: C64 (antibody, human IgG1, kappa, V domains shown)
VH: EVMLVESGGDLVKPGGSLKLSCAASGFTFSSYFMSWVRQTPEKRLEWVATISGGGDKTYYLDILKGRFTISRDNAKNTLYLQMSSLRSEDTALYYCARHEDYAWYAMDYWGQGTSVTVSS
VL: QIVLTQSPAIMSASPGEKVTMTCSASSSVNYIYWYQQKPGSSPRLLIYDTSNLASGVPVRFSGSGSGTSYSLTISRMEAEDAATYYCQQWSSYPLTFGAGTKLELKR
B7: C62 (antibody, human IgG1, kappa, V domains shown)
VH: EVMLVESGGGLVKPGGSLKLSCAASGFSFSSYSMSWVRQTPEKRLECVATIGGVGGNTYYPDSVKGRFSISRDNAKNTLYLQMSSLRSEDTALYYCARHEDYYYYAMDYWGQGTSVTVSS
VL: B6 VL with S26N, S28T, N30S, S71Y, Y93F, L95F, A99S, L105I
B8: C138 (antibody, human IgG1, kappa, V domains shown)
VH: EVQLVESGGGLVKPGGSLKLSCAASGFTFSSYAMSWVRQTPAKRLEWVATITSGDIRTYYPDTVKGRFTISRDNAKNTLYLQMRSLRSEDTAMYYCVGHDDFHFYAMDYWGQGTSVTVSS
VL: B6 VL with N30S, I32L, I74L
B9: C63 (antibody, human IgG1, kappa, V domains shown)
VH: EVMLVESGGGLVKPGGSLKLSCAASGFIFSSYIMSWVRQTPEKRLEWVATIRGGGGNTYYLDSVKGRFIISRDNAKNNLYLQMSSLRSEDTALYYCARHEDYEWYAMDNWGQGTSVTVSS
VL: B6 VL with M21L, S26R, N30S, I32M, R44K
B10: C124 (antibody, human IgG1, kappa, V domains shown)
VH: EVQLVESGGGLVKPGGSLKLSCAASGFTFSSFAMSWVRQTPAKRLESVATINNGGINTYYPDTVKGRFTVSRDNAKNTLYLQMSSLRSEDTAMYYCARHDDFLYYAMDYWGQGTSVTVSS
VL: B6 VL with N30S, I32M, S91T
B11: C71 (antibody, human IgG1, kappa, V domains shown)
VH: B6 VH with M3I, D10G, L18R, K57N, L61P, I63S, L64V, A103E
VL: B6 VL with A13T, N30S, S91T
B12: C57 (antibody, human IgG1, kappa, V domains shown)
VH: EVQLQQSGPVLVKPGASVKMSCKASGYIFTDYYMHWVKQSHGKSLEWIGIINPYNGDTSYNQKFKDKATLTVDKSSSTAYMELNSLTSEDSAVYYCARDSSNVGNAMDYWGQGTSVTVSS
VL: DIQMTQTTSSLSASLGDRVTISCRASQDISNYLNWYLQKPDGTIKLLIYYSSRLHSGVPSRFSGSGSGTDYSLTISNLEQEDIATYFCQQGYTLPRTFGGGTKLEIIR
B13: C132 (antibody, human IgG1, kappa, V domains shown)
VH: QVQLQQSGAELMKPGSSVNLSCKATDYTFTDYWINWVKQRPGHGLEWIGEILPGSVTTNYNEKFRGKATFTADTSSNTAYMQLSSLTSEDSAVYFCARGSDYSYYAMDYWGQGTSVTVSS
VL: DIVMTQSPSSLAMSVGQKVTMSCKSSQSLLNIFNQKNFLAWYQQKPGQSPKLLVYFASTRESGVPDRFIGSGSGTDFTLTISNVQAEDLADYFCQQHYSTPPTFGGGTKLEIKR
B14: C152 (antibody, human IgG1, kappa, V domains shown)
VH: QVQLQQSGTILARPGASVKMSCRASDYTFTDYWIQWIKQRPGQGLEWIGAIFPENGDTRYTQKFKGRATLTADKSSSTAYMQVNSLTSEDSAVYYCATFINYVDYWGQGTTLTVSS
VL: QIVLIQSPAIMSASPGEKVTMTCSASSSVNNIHWYQQKSGTSPKRWIYDTTKLTSGVPARFSGSGSGTSYSLTISSMEAEDAATYYCQQWNINPYTFGGGTKLEIKR
B15: C155 (antibody, human IgG1, kappa, V domains shown)
VH: EVQLVESGGGLVKPGGSLRLSCAASGFTFSDYYMYWVRQAPGKGLEWVATISDAGGYTYYPDSVKGRFTISRDNAKNSLYLQMNSLRAEDTAVYYCGREDLWGQGTLVTVSS
VL: DIQMTQSPSSLSASVGDRVTITCRASQDIGYSLNWFQQKPGKAPRRLIYATSRLDSGVPKRFSGSGSGTDFTLTISSLQPEDFATYYCLQYASFPYTFGGGTKLEIKR
B16: C154 (antibody, human IgG1, kappa, V domains shown)
VH: B15 VH with A49S, G97A
VL: B15 VL with R45K
B17: C156 (antibody, human IgG1, kappa, V domains shown)
VH: B15 VH with Y95F
VL: B15 VL with R45K

How the values were obtained:
[1] = target: T1, human CD112R on GS-J2C/CD112R effector …; assay: cell-based or functional assay
[2] = target: T2, human CD112R antigen protein …; assay: SPR (Biacore X100), antibody captured on Protein A chip, huCD112R-His as analyte, 1:1 Langmuir
[3] = target: T3, monkey antigen protein (monkey CD112R, …); assay: ELISA, monkey antigen protein (as Example 6.1)
[4] = target: T2, human CD112R antigen protein …; assay: ELISA, huCD112R-His coated on plate
[5] = target: T4, human CD112R on antigen-specific CD8+ T …; assay: cell-based or functional assay

Row | Binder | EC50 (Blocking effects of the antibodies, reporter gene method) [1] [µg/mL] | Kd [2] | EC50 [3] [nM] | EC50 [4] [nM] | IFN-γ(pg/ml) at 0.5µg/ml antibody [5] [pg/mL] | IFN-γ(pg/ml) at 5µg/ml antibody [5] [pg/mL] | IFN-γ(pg/ml) at 50µg/ml antibody [5] [pg/mL]
1 | B1 | 0.03 | 0.02 nM | 0.08 | 0.06 |  |  | 
2 | B2 | 0.052 | 0.506 nM and 0.334 nM | 1.29 | 0.056 |  |  | 
3 | B3 |  | 0.0356 nM | 0.077 | 0.042 |  |  | 
4 | B4 | 0.045 | 0.375 nM |  | 0.034 |  |  | 
5 | B5 | 0.065 | 0.346 nM |  | 0.034 | 696 | 718 | 763
6 | B6 | 0.039 | 0.8 nM | 0.054 | 0.034 |  |  | 
7 | B7 | 0.032 | 0.704 nM and 0.571 nM | 0.043 | 0.032 |  |  | 
8 | B8 | 0.029 | 0.55 nM | 0.052 | 0.039 |  |  | 
9 | B9 | 0.023 | 0.488 nM | 0.09 | 0.054 |  |  | 
10 | B10 | 0.015 | 0.243 nM | 0.059 | 0.033 |  |  | 
11 | B11 | 0.029 | 0.158 nM | 0.05 | 0.037 |  |  | 
12 | B12 | 0.061 | 0.13 nM and 0.219 nM | 0.077 | 0.034 |  |  | 
13 | B13 | 0.024 | 0.156 nM | 0.094 | 0.038 |  |  | 
14 | B14 | 0.082 | 0.274 nM | 0.074 | 0.082 |  |  | 
15 | B15 | 0.082 | 0.603 nM |  |  |  |  | 
16 | B16 | 0.071 | 0.724 nM |  |  |  |  | 
17 | B17 | 0.096 | 0.946 nM |  |  |  |  | 
